Data reported in patent publication US20250236642A1 (NEC, published 2025).

B1: peptide of SEQ ID NO: 19 (peptide)
peptide: VMSHHGEKL
notes: synthetic 9-mer derived from Helios; also called A13

Legend:
HLA-A*02:01 molecule = molecular target: T1, HLA-A*02:01 molecule; test: flow cytometry, T2 cells
T1 construct: MHC class I molecule on T2 cells (ATCC); also called product of an HLA-A*02:01 gene; allele A*02:01

HLA-A*24:02 molecule = molecular target: T2, HLA-A*24:02 molecule; test: flow cytometry, C1R-A24 cells;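 also: Read-out was the amount of peptide–MHC complex on each cell, taken as the fluorescence intensity of a bound fluorescent antibody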
T2 construct: MHC class I molecule on C1R-A24 cells, endogenous peptide and b2m stripped at pH 3.3, purified b2m added back; also called product of an HLA-A*24:02 gene; allele A*24:02
Text: Thereafter, the number of MHC-peps for each C1R-A24 cell (proportional to a fluorescence intensity of the fluorescent antibody) was quantitatively measured using a fluorescence cell analyzer FACScan (Becton-Dickinson).

Row | Binder | log Kd (HLA-A*02:01 molecule) | log10 Kd (M) (HLA-A*24:02 molecule)
1 | B1 | -5.08 | -6.1
2 | ALRPAPALL (synthetic 9-mer derived from EVC1) [peptide of SEQ ID NO: 26] | -6.11 | -6.4
3 | SLVLTWAAL (synthetic 9-mer derived from EVC2) [peptide of SEQ ID NO: 14] | -5.63 | -5.31
4 | MLPQTPSHL (synthetic 9-mer derived from c-Myb) [peptide of SEQ ID NO: 24] | -5.58 | -7.14
5 | VLLQQFQTA (synthetic 9-mer derived from EVC2) [peptide of SEQ ID NO: 15] | -4.71 | -5.55
6 | LLNPNRQTI (synthetic 9-mer derived from CADM1) [peptide of SEQ ID NO: 23] | -5.24 | -6.22
